The results in this text go back to patent publication CN116507641A (XINSHI BIOPHARMACEUTICAL CO LTD, dated 2023).

Assay [1] concerns the target T1, 食蟹猴结合素-4 (cynomolgus Nectin-4) (cynomolgus monkey, UniProt Q96NY8 32-510 (human entry)).
T1 construct: Transiently expressed on 293T cells; also called XP_005541277.1
T1 chain: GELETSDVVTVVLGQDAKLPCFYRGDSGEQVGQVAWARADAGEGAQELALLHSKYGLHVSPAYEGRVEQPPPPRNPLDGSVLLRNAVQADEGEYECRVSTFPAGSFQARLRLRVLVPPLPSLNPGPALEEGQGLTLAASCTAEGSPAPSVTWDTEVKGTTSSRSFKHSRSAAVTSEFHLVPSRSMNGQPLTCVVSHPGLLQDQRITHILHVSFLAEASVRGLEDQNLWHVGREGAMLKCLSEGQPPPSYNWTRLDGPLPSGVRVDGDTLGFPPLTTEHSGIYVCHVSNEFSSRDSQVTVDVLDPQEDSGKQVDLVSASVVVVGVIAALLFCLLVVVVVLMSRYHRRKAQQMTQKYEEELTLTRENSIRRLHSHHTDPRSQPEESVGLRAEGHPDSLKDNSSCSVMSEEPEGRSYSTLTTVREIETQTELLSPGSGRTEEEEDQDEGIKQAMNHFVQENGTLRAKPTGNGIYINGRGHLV
The assay can be described thus: flow cytometry on transiently transfected 293T cells; +++ = EC50 below 5nM.

For assay [2], the target named is T2, 大鼠结合素-4 (rat Nectin-4) (rat, UniProt Q8R007 31-508 (mouse entry)).
T2 construct: Transiently expressed on 293T cells; also called NP_001102546.1
T2 chain: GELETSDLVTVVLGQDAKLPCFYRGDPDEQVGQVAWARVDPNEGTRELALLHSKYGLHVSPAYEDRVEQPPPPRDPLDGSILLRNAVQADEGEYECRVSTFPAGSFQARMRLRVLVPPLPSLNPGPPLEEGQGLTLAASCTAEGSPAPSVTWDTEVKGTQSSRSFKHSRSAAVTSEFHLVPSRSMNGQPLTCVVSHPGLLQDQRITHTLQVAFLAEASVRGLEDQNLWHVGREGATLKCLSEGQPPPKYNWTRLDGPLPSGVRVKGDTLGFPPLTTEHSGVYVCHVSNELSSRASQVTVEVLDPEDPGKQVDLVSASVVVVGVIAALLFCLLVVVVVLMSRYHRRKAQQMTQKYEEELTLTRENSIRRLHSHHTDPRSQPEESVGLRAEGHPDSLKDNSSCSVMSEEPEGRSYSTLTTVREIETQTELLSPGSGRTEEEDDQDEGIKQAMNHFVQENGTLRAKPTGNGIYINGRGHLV
The assay can be described thus: flow cytometry on transiently transfected 293T cells; + = EC50 25nM to 133nM. Background: In flow cytometry, cells or beads pass a laser one at a time.

Assay [3] deals with T2, 大鼠结合素-4 (rat Nectin-4). Kind of assay: flow cytometry on transiently transfected 293T cells; ++ = EC50 5nM to 25nM.
For assay [4], the target named is T3, 小鼠结合素-4 (mouse Nectin-4) (mouse, UniProt Q8R007 31-508).
T3 construct: Transiently expressed on 293T cells; also called NP_082169.2
T3 sequence: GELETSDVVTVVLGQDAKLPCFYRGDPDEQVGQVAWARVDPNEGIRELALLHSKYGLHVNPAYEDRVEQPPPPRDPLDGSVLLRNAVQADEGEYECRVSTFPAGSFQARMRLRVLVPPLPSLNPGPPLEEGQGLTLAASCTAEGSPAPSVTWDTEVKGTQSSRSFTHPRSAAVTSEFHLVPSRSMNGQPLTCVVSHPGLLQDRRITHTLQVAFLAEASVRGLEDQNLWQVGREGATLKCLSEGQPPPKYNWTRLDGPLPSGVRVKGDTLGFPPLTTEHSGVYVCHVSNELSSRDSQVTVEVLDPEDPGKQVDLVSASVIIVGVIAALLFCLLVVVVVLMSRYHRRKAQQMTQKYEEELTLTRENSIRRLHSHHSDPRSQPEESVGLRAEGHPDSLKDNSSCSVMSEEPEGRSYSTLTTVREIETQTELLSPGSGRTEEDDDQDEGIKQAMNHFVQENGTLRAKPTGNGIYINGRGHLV
Described as above.

In assay [5] the target is T2, 大鼠结合素-4 (rat Nectin-4). The assay can be described thus: flow cytometry on transiently transfected 293T cells; +++ = EC50 below 5nM.
Assay [6] addresses T3, 小鼠结合素-4 (mouse Nectin-4). Kind of assay: flow cytometry on transiently transfected 293T cells; + = EC50 25nM to 133nM.
In assay [7] the target is T4, 人重组结合素-4蛋白 (recombinant human Nectin-4, extracellular domain) (human, UniProt Q96NY8 32-349).
T4 construct: Protein coated on the ELISA plate; May be the same protein as the Nectin-4-His used in SPR; also called 重组结合素-4(细胞外结构域); 人结合素-4蛋白
T4 sequence: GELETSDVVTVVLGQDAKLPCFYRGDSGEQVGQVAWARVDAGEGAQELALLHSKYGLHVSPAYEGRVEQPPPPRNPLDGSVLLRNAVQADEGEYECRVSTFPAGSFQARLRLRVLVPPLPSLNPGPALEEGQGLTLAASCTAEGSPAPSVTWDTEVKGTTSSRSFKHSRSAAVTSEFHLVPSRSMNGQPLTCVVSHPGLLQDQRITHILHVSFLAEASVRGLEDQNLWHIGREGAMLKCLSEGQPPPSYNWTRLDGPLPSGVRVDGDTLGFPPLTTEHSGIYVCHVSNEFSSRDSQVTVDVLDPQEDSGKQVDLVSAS
The assay can be described thus: ELISA, recombinant human Nectin-4 coated on plate. On the technique in general: In an ELISA, binding on a coated surface is turned into a signal by an enzyme label.

The target of assay [8] is T5, 人结合素-4变体 ΔV结构域 (human Nectin-4 lacking amino acids 32-147) (human, UniProt Q96NY8 148-510).
T5 construct: Transiently expressed on 293T cells; also called 缺少Ig样V型结构域的变体
T5 sequence: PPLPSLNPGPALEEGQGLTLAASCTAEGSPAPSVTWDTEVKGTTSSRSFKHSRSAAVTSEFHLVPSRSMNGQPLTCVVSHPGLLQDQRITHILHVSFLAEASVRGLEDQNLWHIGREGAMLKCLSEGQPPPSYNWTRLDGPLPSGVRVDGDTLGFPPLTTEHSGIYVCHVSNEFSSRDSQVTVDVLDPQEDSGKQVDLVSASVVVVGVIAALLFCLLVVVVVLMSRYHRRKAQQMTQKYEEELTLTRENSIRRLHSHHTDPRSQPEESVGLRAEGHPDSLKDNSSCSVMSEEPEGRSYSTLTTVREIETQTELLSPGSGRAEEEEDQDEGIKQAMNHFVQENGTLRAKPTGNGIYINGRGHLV
Kind of assay: flow cytometry on transiently transfected 293T cells.

The target in assay [9] is T6, 重组人结合素4-His蛋白 (recombinant human Nectin-4-His) (human, UniProt Q96NY8 32-349).
T6 construct: Analyte in SPR; also called 人重组结合素-4; not shown: His tag
T6 sequence: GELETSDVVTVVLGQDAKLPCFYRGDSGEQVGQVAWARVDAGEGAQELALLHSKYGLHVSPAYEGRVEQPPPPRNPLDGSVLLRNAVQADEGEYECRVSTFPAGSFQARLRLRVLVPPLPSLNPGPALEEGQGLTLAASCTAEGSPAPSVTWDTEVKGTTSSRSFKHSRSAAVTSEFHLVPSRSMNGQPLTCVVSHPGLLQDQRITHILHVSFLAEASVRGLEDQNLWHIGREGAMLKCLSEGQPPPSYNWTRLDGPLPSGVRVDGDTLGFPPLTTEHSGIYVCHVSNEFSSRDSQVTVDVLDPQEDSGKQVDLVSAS
The assay can be described thus: SPR (BIAcore 3000), antibody captured by anti-human IgG on CM5, Nectin-4-His as analyte, 1:1 binding with mass transfer. (In general: In SPR one partner is held on a chip, and binding of the other changes the refractive index at the surface.)

Assay [10] concerns the target T7, 人结合素-2 (recombinant human Nectin-2; ACROBiosystems PV2-H52E2) (human, UniProt Q92692 32-360).
T7 construct: extracellular domain
T7 sequence (looked up): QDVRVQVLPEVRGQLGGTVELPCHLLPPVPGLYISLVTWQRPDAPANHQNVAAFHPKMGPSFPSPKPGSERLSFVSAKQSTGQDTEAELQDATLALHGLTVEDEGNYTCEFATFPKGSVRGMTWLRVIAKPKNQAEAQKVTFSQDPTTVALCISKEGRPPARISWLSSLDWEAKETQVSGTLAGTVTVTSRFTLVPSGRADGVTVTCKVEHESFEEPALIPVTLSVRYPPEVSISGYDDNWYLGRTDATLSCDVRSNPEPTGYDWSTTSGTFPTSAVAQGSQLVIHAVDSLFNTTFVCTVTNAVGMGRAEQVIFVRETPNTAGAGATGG
Kind of assay: ELISA or Gator binding assay.

B1: N4_mAb 4 (antibody, V domains shown)
VH: DVQLQESGPDLVKPSQSLSLTCTVTGYSITSAYNWHWIRQFPGNKLEWMGYIHYSGRTNYNPSLKSRISITRDTSKNQFFLQLNSLTTEDTATYYCARWITTATGWYLDVWGAGTTVTVSS
VL: not shown
B1: the EC50 was under 5 nM in assay [1] and 25 to 133 nM with 大鼠结合素-4 (rat Nectin-4) [2].

B2: N4_mAb 3 (antibody, V domains shown)
VH: EVQLQQSGAELVKPGASVKLSCTVSGFNIKDTYMHWVKQRPEQGLEWIGRIDPANGNTKYDPKFQGKATIIADKASNTAYLQLSSLTSEDAAVYYCAHYYGSSYFAMDCWGQGTSVTVSS
VL: DIVMTQSHKFMSTSVGDRVSITCKASQDVSTAVAWYQQKPGQSPKLLIYWASTRHTGVPDRFTGSGSGTDYTLTISSVQTEDLALYYCQQHYSTPLTFGAGTKLELK
B2: the EC50 in assay [1] is under 5 nM; with 大鼠结合素-4 (rat Nectin-4) [2], 25 to 133 nM.

B3: N4_mAb 1 (antibody, V domains shown)
VH: QVQLKQSGPGLVQPSQSLSITCTVSGFSLTNYGVNWVRQPPGKGLEWLGVIWSGGSTDYNAAFISRLSISKDISKSQVFFKMNSLQADDTAKYYCAREGYDGYAMDYWGQGTSVTVSS
VL: DIQMTQSPASLSVSVGETVTITCRASENIFSSLAWYQQKQGKSPQLLVYGATNLADGVPSRFSGSGSGTQYSLKINSLQSEDFGTYWCQHFWGNPWTFGGGTKLEIK
B3 registered an EC50 in [1] of under 5 nM.

B4: N4_mAb 2 (antibody, V domains shown)
VH: QVQLKQSGPNLVQPSQSLSITCTVSGFSLTTYGAHWVRQSPGKGLEWLGVIWRGGSTDYNAAFMSRLSITKDNSKSQVFFKMNSLQADDTAIYYCAKIGYDGYAMDNWGQGTSVTVSS
VL: DFQVTQSPASLSASVGETVTITCRTSENIHNYLAWYQQKQGKSPQLLVYNAKTLADGVPSRFSGSGSGTQYSLKINSLQPEDFGTYYCQHFWSSPWTFGGGTKLEIK
B4: the values for the EC50 (in assay [1]; in the assay with 大鼠结合素-4 (rat Nectin-4) [3]; with 小鼠结合素-4 (mouse Nectin-4) [4]) were under 5 nM, 5 to 25 nM and 5 to 25 nM, respectively.

B5: N4_mAb 5 (antibody, V domains shown)
VH: EVQLQQSGPDLVKPGASVKISCKASGYSFTGHYMHWVKQSHGKSLEWIGRVNPNNGGSSYNQKFKDKAILTVDKSSTTAYMELRSLTSEDSAVYYCARDPLGGSYGFAYWGQGTLVTVSA
VL: DIVLTQSPASLAVSLGQRATISCRASQSVTTSSYSYMHWYQQKPGQPPKLLIKYASNLESGVPARFSGSGSGTDFTLNIHPVEEEDTATYYCQHSWEIPYTFGGGTKLEMK
As to B5, the 50% effective concentration (EC50) in [1] is under 5 nM; with 大鼠结合素-4 (rat Nectin-4) [5], under 5 nM; in the assay with 小鼠结合素-4 (mouse Nectin-4) [6], 25 to 133 nM.

B6: N4_mAb 6 (antibody, V domains shown)
VH: QVQLQQSGPELVKPGASVRISCKASGYTFTTYYIHWVKQRPGQGLEWIGWIYPGNVNTKYTENFKDKATLTADKSSSTAYMQLSSLTSEDSAVYFCARGLYYFDFWGQGTTLTVSS
VL: SIVMTQTPKFLLVSAGDRVTITCKASQSVNNDVAWYQQKPGQSPKLLIYYASNRDTGVPDRFTGSGFGTDFTFTISSVQAEDLAVYFCQQDYSSPYTFGGGTKLEIK
notes: Murine variable regions
B6: the half-maximal effective concentration (EC50) was 0.03 nM in assay [7], under 5 nM in [1], under 5 nM with 大鼠结合素-4 (rat Nectin-4) [5] and 5 to 25 nM in the assay with 小鼠结合素-4 (mouse Nectin-4) [4]. Further, the binding result is given as “no binding (tested: 最高测试的抗体浓度(133nM))” in [8] and “no binding” in [10]. Further, the Kd in [9] was 0.392 nM.

B7: N4_mAb 8 (antibody, V domains shown)
VH: QVQLQQSGPVLVKPGASVRISCKASGYTFTSYYIHWVKQRPGQGLEWIGWIYPGNVNTKYNENFRDKATLTADKSSSTSYMQLSSLTSEDSAVYFCARGIYYFDYWGQGTTLTVSS
VL: IIVMTQTPKFLLVSAGDRVTITCKASQSVNNDVAWYQEKPGQSPKLLIYYASNRDTGVPDRFTGSGYGTDFTFTISTVQAEDLAVYFCHQDYSSPFTFGSGTKLEIK
notes: Murine variable regions
As for B7, the EC50 in [7] is 0.14 nM; in assay [1], under 5 nM; with 大鼠结合素-4 (rat Nectin-4) [5], under 5 nM; with 小鼠结合素-4 (mouse Nectin-4) [4] it was 5 to 25 nM. For the same molecule, the binding result in assay [8] is on record as “no binding (tested: 最高测试的抗体浓度(133nM))”; in [10] it was “no binding”. Further, the Kd in [9] was determined as 0.375 nM.

B8: N4_mAb 7 (antibody, V domains shown)
VH: QVQLQQSGPELVKPGASVKMSCKASGYTFTTYYIHWVKQRPGQGLEWIGWIYPGNAGIKSNEKFKGKTTLTADKSSSTAYMLLSSLTSEDSAIYFCARGVYFFDYWGQGTTLTVSS
VL: SIVMTQTPKFLLVSAGDRVTITCKASQSVNNDVSWFQQKPGQSPKLLIYYASNRYTGVPDRFSGSGYGTDFTFTITTVQAEDLAVYFCQQDYSSPYTFGGGTKLEIK
notes: Murine variable regions
Consider B8, for which the EC50 in assay [7] was 0.04 nM; in assay [1], under 5 nM; with 大鼠结合素-4 (rat Nectin-4) [5] it was under 5 nM; with 小鼠结合素-4 (mouse Nectin-4) [4] it was 5 to 25 nM. Further, the binding result is recorded as “no binding (tested: 最高测试的抗体浓度(133nM))” in assay [8] and “no binding” in assay [10]. Besides, the dissociation constant Kd in [9] was determined as 0.39 nM.

Usually EC50 stands for the midpoint of the concentration-response curve. Usually Kd stands for the equilibrium constant for the complex coming apart.
